Test results from publication PMC4062093, “The structure of a purple acid phosphatase involved in plant growth and pathogen defence exhibits a novel immunoglobulin-like fold” (Iucrj, 2014).

How the values were obtained:
[1] = biological target: PPD1 (diphosphonucleotide phosphatase/phosphodiesterase) (Lupinus luteus, UniProt Q8VX11); conditions: active site, bidentate, bridging Fe and Mn; crystals from acetate pH 5.2 and Morpheus solution pH 6.5
[2] = biological target: Diphosphonucleotide phosphatase/phosphodiesterase (PPD1) from yellow lupin (Lupinus luteus) seeds (yellow lupin (Lupinus luteus)); assay: SAXS; PPD1 in solution, 1-4 mg/ml, SWING beamline at SOLEIL; crystallographic hexamer and trimer models fitted with CRYSOL, ab initio shape reconstruction with GASBOR
[3] = biological target: Diphosphonucleotide phosphatase/phosphodiesterase (PPD1) from yellow lupin (Lupinus luteus) seeds (yellow lupin (Lupinus luteus)); assay: crystal structure; hanging drop at room temperature, 5 mg/ml PPD1 in 20 mM sodium acetate, 0.5 M NaCl pH 5.2 with Morpheus solution 39 (pH 6.5); asymmetric unit a homotrimer, hexamer generated from crystallographic symmetry; 1.65 Å

Chain of PPD1 (diphosphonucleotide phosphatase/phosphodiesterase) (Q8VX11 27-615): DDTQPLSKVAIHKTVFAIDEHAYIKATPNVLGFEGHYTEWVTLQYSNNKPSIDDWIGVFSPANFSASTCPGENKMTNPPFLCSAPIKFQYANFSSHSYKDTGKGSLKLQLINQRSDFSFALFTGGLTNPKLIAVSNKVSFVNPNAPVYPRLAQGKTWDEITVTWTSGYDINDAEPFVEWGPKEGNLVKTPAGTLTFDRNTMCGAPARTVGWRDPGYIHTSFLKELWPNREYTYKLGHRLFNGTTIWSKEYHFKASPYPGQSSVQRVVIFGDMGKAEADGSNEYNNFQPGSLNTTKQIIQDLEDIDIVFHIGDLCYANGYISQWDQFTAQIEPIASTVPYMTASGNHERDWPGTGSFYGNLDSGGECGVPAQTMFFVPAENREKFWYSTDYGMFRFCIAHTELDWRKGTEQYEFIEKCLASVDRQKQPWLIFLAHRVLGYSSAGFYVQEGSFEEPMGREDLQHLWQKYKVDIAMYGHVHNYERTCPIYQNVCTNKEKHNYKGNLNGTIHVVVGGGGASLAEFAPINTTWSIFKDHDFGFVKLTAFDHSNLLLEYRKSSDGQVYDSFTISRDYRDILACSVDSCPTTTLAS

| stoichiometry N [2] | stoichiometry N [3] | Compound | X-ray crystal structure, 1.65 A [1] |
| --- | --- | --- | --- |
|  |  | O=P(O)(O)O [phosphate] | active site of PPD1 with a phosphate ion bound to both of the metal atoms |
| 6 | 6 | Diphosphonucleotide phosphatase/phosphodiesterase (PPD1) from yellow lupin (Lupinus luteus) seeds (enzyme) |  |
